Measurements published in patent publication US20060057652A1 (UNIVERSITY OF MASSACHUSETTS, published 2006).

Experiments:
[1] = target: T1, anaphase promoting complex subunit 1 (APC1) (Homo sapiens, UniProt Q9H1A4 1-1944); assay: anti-FLAG immunoprecipitation from H1299 cells, APC1 immunoblot
T1 construct: Endogenous protein in lysates of H1299 (or PFF) cells, detected with a polyclonal anti-APC1 antibody or by MALDI-TOF; also called Cyclosome subunit 1; Protein TSG24

β-actin = target: T2, β-actin (UniProt P60709 2-375); assay: anti-FLAG affinity purification from Ad-Apwt-infected H1299 cells, SDS-PAGE, MALDI-TOF
T2 construct: also called beta-actin

T1 sequence (Q9H1A4 whole entry, one chain of several): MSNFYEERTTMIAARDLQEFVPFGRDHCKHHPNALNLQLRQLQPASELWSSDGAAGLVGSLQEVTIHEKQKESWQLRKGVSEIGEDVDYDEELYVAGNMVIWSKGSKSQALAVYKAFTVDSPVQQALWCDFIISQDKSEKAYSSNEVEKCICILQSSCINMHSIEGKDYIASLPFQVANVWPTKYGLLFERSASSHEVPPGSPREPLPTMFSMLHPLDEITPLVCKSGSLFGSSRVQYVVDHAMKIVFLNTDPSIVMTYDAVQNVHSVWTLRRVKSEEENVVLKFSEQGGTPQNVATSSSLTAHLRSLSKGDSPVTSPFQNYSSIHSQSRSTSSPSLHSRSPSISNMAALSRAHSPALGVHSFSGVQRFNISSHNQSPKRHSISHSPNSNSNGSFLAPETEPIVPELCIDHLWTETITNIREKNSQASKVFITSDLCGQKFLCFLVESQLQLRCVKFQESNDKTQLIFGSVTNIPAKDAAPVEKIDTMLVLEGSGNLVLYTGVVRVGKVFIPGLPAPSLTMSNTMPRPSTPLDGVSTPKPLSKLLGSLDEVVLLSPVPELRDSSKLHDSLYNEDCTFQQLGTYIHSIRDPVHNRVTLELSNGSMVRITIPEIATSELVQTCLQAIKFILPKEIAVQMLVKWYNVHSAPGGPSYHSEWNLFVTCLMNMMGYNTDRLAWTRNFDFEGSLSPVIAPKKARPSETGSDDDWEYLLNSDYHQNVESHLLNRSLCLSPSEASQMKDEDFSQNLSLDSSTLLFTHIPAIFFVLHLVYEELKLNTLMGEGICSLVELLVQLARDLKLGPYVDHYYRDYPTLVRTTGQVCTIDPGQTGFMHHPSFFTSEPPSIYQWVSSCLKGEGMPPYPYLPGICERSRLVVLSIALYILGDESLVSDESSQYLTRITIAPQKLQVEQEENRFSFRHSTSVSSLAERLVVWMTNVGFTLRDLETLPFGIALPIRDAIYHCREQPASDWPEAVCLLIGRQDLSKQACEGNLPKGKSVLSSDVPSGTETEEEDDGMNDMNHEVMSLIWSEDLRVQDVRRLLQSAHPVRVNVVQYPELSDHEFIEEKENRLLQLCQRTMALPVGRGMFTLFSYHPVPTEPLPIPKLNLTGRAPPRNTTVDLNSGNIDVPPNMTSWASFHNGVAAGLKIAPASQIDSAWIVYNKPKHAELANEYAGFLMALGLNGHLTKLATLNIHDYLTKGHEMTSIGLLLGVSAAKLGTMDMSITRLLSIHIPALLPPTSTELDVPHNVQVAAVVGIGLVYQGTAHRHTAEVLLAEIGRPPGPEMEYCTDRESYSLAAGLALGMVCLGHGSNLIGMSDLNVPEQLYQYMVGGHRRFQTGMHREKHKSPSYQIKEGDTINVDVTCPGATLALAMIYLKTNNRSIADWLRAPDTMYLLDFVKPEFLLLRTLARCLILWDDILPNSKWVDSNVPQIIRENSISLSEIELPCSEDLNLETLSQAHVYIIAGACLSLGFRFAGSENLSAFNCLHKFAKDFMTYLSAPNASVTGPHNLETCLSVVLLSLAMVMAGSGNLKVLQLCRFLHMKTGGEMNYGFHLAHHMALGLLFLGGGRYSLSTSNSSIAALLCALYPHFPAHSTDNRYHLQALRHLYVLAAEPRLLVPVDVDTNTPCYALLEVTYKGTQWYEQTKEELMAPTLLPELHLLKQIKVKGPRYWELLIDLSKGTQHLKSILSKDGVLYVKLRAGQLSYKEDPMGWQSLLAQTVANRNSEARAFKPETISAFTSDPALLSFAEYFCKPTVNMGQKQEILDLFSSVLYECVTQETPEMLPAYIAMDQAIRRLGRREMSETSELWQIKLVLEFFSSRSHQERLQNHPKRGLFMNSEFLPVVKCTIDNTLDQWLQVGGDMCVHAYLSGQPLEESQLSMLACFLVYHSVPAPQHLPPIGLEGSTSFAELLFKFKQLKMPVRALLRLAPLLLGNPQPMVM

B1: triple FLAG-tagged Ap-SV40NLS (other)
chain: MNALQEDTPPGPSTVFRPPTSSRPLETPHCREIRIGIAGITITLSLCGCANARAPTLRSATADNSESTGFKNVPDLRTDQPKPPSKKRPKKKRKV
notes: The make-up (Apoptin 1-88 plus SV40 LT NLS) is described for the GFP construct; not shown: triple FLAG tag
B1: no binding [1].

B2: FLAG-tagged wild type Apoptin expressed from adenovirus Ad-Apwt (other)
chain: MNALQEDTPPGPSTVFRPPTSSRPLETPHCREIRIGIAGITITLSLCGCANARAPTLRSATADNSESTGFKNVPDLRTDQPKPPSKKRSCDPSEYRVSELKESLITTTPSRPRTAKRRIRL
notes: Expressed in infected H1299 or PFF cells and pulled down from lysates on anti-FLAG beads; also called FLAG-Apoptin; FLAG-tagged Apoptin
B2: binds (β-actin).

B3: triple FLAG-tagged Ap-pmNLS2 (other)
chain: MNALQEDTPPGPSTVFRPPTSSRPLETPHCREIRIGIAGITITLSLCGCANARAPTLRSATADNSESTGFKNVPDLRTDQPKPPSKKRSCDPSEYRVSELKESLITTTPSRPRTAAAAIRL
notes: not shown: triple FLAG tag
B3: no binding [1].
